Bridges are numbered along the chain shown (N, C = ends). Where no end group is shown, it is not given here. [ ]: non-standard residue; d: D form. The star is where a group is joined. PEG 40 kDa = PEG (40 kDa) covalently attached to Cys; Myristoyl = CCCCCCCCCCCCCC(=O)*; Abu = CC[C@H](N)C(=O)O; Aib = CC(C)(N)C(=O)O
T1: GIP receptor (UniProt P48546 22-466)
T1 sequence (looked up): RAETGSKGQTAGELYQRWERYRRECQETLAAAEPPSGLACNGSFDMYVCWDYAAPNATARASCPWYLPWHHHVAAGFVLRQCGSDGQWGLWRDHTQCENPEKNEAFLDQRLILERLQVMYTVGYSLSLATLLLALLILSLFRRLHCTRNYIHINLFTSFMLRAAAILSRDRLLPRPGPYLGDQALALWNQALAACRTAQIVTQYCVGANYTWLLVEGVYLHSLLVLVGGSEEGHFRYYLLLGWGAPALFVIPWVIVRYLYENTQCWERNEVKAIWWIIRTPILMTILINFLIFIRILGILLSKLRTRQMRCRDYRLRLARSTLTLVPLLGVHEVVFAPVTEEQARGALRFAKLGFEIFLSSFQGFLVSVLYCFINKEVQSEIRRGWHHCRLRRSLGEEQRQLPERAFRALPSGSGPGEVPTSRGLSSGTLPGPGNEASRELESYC

T2: GIP receptor (UniProt P48546 22-466)
T2 sequence (looked up): T1 sequence (looked up)

B1: mt-325 (peptide)
peptide: Y[Aib]QGTF[Abu]SDYSIYLDKQAA[Aib]EFVNWLLAGGPSSGAPPPSC-NH2
modifications: N-terminus assumed
SMILES: CC[C@H](NC(=O)[C@H](Cc1ccccc1)NC(=O)[C@@H](NC(=O)CNC(=O)[C@H](CCC(N)=O)NC(=O)C(C)(C)NC(=O)[C@@H](N)Cc1ccc(O)cc1)[C@@H](C)O)C(=O)N[C@@H](CO)C(=O)N[C@@H](CC(=O)O)C(=O)N[C@@H](Cc1ccc(O)cc1)C(=O)N[C@@H](CO)C(=O)N[C@H](C(=O)N[C@@H](Cc1ccc(O)cc1)C(=O)N[C@@H](CC(C)C)C(=O)N[C@@H](CC(=O)O)C(=O)N[C@@H](CCCCN)C(=O)N[C@@H](CCC(N)=O)C(=O)N[C@@H](C)C(=O)N[C@@H](C)C(=O)NC(C)(C)C(=O)N[C@@H](CCC(=O)O)C(=O)N[C@@H](Cc1ccccc1)C(=O)N[C@H](C(=O)N[C@@H](CC(N)=O)C(=O)N[C@@H](Cc1c[nH]c2ccccc12)C(=O)N[C@@H](CC(C)C)C(=O)N[C@@H](CC(C)C)C(=O)N[C@@H](C)C(=O)NCC(=O)NCC(=O)N1CCC[C@H]1C(=O)N[C@@H](CO)C(=O)N[C@@H](CO)C(=O)NCC(=O)N[C@@H](C)C(=O)N1CCC[C@H]1C(=O)N1CCC[C@H]1C(=O)N1CCC[C@H]1C(=O)N[C@@H](CO)C(=O)N[C@@H](CS)C(N)=O)C(C)C)[C@@H](C)CC
B2: mt-324 (peptide)
peptide: Y[Aib]QGTFSSDYSIYLDKQAA[Aib]EFVNWLLAGGPSSGAPPPSC-NH2
modifications: N-terminus assumed
SMILES: CC[C@H](C)[C@H](NC(=O)[C@H](CO)NC(=O)[C@H](Cc1ccc(O)cc1)NC(=O)[C@H](CC(=O)O)NC(=O)[C@H](CO)NC(=O)[C@H](CO)NC(=O)[C@H](Cc1ccccc1)NC(=O)[C@@H](NC(=O)CNC(=O)[C@H](CCC(N)=O)NC(=O)C(C)(C)NC(=O)[C@@H](N)Cc1ccc(O)cc1)[C@@H](C)O)C(=O)N[C@@H](Cc1ccc(O)cc1)C(=O)N[C@@H](CC(C)C)C(=O)N[C@@H](CC(=O)O)C(=O)N[C@@H](CCCCN)C(=O)N[C@@H](CCC(N)=O)C(=O)N[C@@H](C)C(=O)N[C@@H](C)C(=O)NC(C)(C)C(=O)N[C@@H](CCC(=O)O)C(=O)N[C@@H](Cc1ccccc1)C(=O)N[C@H](C(=O)N[C@@H](CC(N)=O)C(=O)N[C@@H](Cc1c[nH]c2ccccc12)C(=O)N[C@@H](CC(C)C)C(=O)N[C@@H](CC(C)C)C(=O)N[C@@H](C)C(=O)NCC(=O)NCC(=O)N1CCC[C@H]1C(=O)N[C@@H](CO)C(=O)N[C@@H](CO)C(=O)NCC(=O)N[C@@H](C)C(=O)N1CCC[C@H]1C(=O)N1CCC[C@H]1C(=O)N1CCC[C@H]1C(=O)N[C@@H](CO)C(=O)N[C@@H](CS)C(N)=O)C(C)C
B3: mt-197 (peptide)
peptide: GTFTSDYSIYLDEQAAKEFVNWLLAG-NH2
modifications: lactam 13-17; N-terminus assumed
SMILES: CC[C@H](C)[C@H](NC(=O)[C@H](CO)NC(=O)[C@H](Cc1ccc(O)cc1)NC(=O)[C@H](CC(=O)O)NC(=O)[C@H](CO)NC(=O)[C@@H](NC(=O)[C@H](Cc1ccccc1)NC(=O)[C@@H](NC(=O)CN)[C@@H](C)O)[C@@H](C)O)C(=O)N[C@@H](Cc1ccc(O)cc1)C(=O)N[C@@H](CC(C)C)C(=O)N[C@@H](CC(=O)O)C(=O)N[C@H]1CCC(=O)NCCCC[C@@H](C(=O)N[C@@H](CCC(=O)O)C(=O)N[C@@H](Cc2ccccc2)C(=O)N[C@H](C(=O)N[C@@H](CC(N)=O)C(=O)N[C@@H](Cc2c[nH]c3ccccc23)C(=O)N[C@@H](CC(C)C)C(=O)N[C@@H](CC(C)C)C(=O)N[C@@H](C)C(=O)NCC(N)=O)C(C)C)NC(=O)[C@H](C)NC(=O)[C@H](C)NC(=O)[C@H](CCC(N)=O)NC1=O
B4: mt-194 (peptide)
peptide: [Aib]QGTFTSDYSIYLDEEAVRLFVNWLLAGGPSSGAPPPS-NH2
modifications: N-terminus assumed
SMILES: CC[C@H](C)[C@H](NC(=O)[C@H](CO)NC(=O)[C@H](Cc1ccc(O)cc1)NC(=O)[C@H](CC(=O)O)NC(=O)[C@H](CO)NC(=O)[C@@H](NC(=O)[C@H](Cc1ccccc1)NC(=O)[C@@H](NC(=O)CNC(=O)[C@H](CCC(N)=O)NC(=O)C(C)(C)N)[C@@H](C)O)[C@@H](C)O)C(=O)N[C@@H](Cc1ccc(O)cc1)C(=O)N[C@@H](CC(C)C)C(=O)N[C@@H](CC(=O)O)C(=O)N[C@@H](CCC(=O)O)C(=O)N[C@@H](CCC(=O)O)C(=O)N[C@@H](C)C(=O)N[C@H](C(=O)N[C@@H](CCCNC(=N)N)C(=O)N[C@@H](CC(C)C)C(=O)N[C@@H](Cc1ccccc1)C(=O)N[C@H](C(=O)N[C@@H](CC(N)=O)C(=O)N[C@@H](Cc1c[nH]c2ccccc12)C(=O)N[C@@H](CC(C)C)C(=O)N[C@@H](CC(C)C)C(=O)N[C@@H](C)C(=O)NCC(=O)NCC(=O)N1CCC[C@H]1C(=O)N[C@@H](CO)C(=O)N[C@@H](CO)C(=O)NCC(=O)N[C@@H](C)C(=O)N1CCC[C@H]1C(=O)N1CCC[C@H]1C(=O)N1CCC[C@H]1C(=O)N[C@@H](CO)C(N)=O)C(C)C)C(C)C

molecular target: GLP-1 receptor (UniProt P43220 24-463, limits assumed); experiment: cell-based or functional assay

| Binder | EC50 [nM] | relative activity [%] |
| --- | --- | --- |
| B1 | 2.68 | 0.83 |
| Y[Aib]EGTFTSDYSIYLDKQAA[Aib]EFVC(PEG 40 kDa)WLLAGGPSSGAPPPSK-NH2 (not fully specified) [mt-311] | 0.217 | 7.22 |
| Y[Aib]EGTFTSDYSIYLDKQAA[Aib]EFVNWLLAGGPSSGAPPPSKC-NH2 [mt-340] | 0.0061 |  |
| Y[Aib]EGTFTSDYSIYLDKQAA[Aib]EFVNWLLAGGPSSGAPPPSK(Myristoyl)C-NH2 [mt-339] | 0.0092 |  |
| Y[Aib]EGTFTSDYSIYLDKQAA[Aib]EFVC(PEG 40 kDa)WLLAGGPSSGAPPPSK-NH2 (also: PEG linkage structure not given here) [mt-331] | 0.448 | 4.53 |
| B2 | 0.23 | 9.68 |

molecular target: glucagon receptor (UniProt P47871 26-477, limits assumed); experiment: cell-based or functional assay
Target sequence in this assay (P47871 26-477 limits assumed): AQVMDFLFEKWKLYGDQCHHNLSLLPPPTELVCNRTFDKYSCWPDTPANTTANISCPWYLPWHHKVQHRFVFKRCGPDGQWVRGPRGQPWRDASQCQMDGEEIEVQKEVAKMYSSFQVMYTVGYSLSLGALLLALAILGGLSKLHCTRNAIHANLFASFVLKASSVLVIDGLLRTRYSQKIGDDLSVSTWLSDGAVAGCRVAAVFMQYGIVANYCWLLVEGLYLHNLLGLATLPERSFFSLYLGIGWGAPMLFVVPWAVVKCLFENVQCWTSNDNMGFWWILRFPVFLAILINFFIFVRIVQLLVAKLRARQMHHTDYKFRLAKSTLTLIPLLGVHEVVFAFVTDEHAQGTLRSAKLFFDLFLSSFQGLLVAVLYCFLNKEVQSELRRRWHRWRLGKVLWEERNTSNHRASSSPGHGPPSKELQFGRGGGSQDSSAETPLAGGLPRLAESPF

| Binder | EC50 [nM] | relative activity [%] |
| --- | --- | --- |
| B1 | 0.0915 | 86.5 |
| Y[Aib]EGTFTSDYSIYLDKQAA[Aib]EFVC(PEG 40 kDa)WLLAGGPSSGAPPPSK-NH2 (not fully specified) [mt-311] | 197 | 0.03 |
| Y[Aib]EGTFTSDYSIYLDKQAA[Aib]EFVNWLLAGGPSSGAPPPSKC-NH2 [mt-340] | 10.5 |  |
| Y[Aib]EGTFTSDYSIYLDKQAA[Aib]EFVNWLLAGGPSSGAPPPSK(Myristoyl)C-NH2 [mt-339] | 8.72 |  |
| Y[Aib]EGTFTSDYSIYLDKQAA[Aib]EFVC(PEG 40 kDa)WLLAGGPSSGAPPPSK-NH2 (also: PEG linkage structure not given here) [mt-331] | 408 | 0.02 |
| B2 | 1.23 | 6.41 |

molecular target: T1, GIP receptor; experiment: cell-based or functional assay

| Binder | EC50 [nM] | relative activity [%] |
| --- | --- | --- |
| B1 | 0.0105 | 111 |
| Y[Aib]EGTFTSDYSIYLDKQAA[Aib]EFVC(PEG 40 kDa)WLLAGGPSSGAPPPSK-NH2 (not fully specified) [mt-311] | 0.0545 | 37.8 |
| Y[Aib]EGTFTSDYSIYLDKQAA[Aib]EFVNWLLAGGPSSGAPPPSKC-NH2 [mt-340] | 0.0028 |  |
| Y[Aib]EGTFTSDYSIYLDKQAA[Aib]EFVNWLLAGGPSSGAPPPSK(Myristoyl)C-NH2 [mt-339] | 0.004 |  |
| Y[Aib]EGTFTSDYSIYLDKQAA[Aib]EFVC(PEG 40 kDa)WLLAGGPSSGAPPPSK-NH2 (also: PEG linkage structure not given here) [mt-331] | 0.0968 | 10.6 |
| B2 | 0.0387 | 30.2 |

molecular target: glucagon receptor (UniProt P47871 26-477, limits assumed); experiment: cell-based or functional assay; remark: another data set of the same source
Target sequence in this assay (P47871 26-477 limits assumed): as the sequence (P47871 26-477 limits assumed) above

| Binder | EC50 [nM] | relative activity [%] |
| --- | --- | --- |
| Y[Aib]QGTFTSDYSIYLDEQAAKEFVC(PEG 40 kDa)WLLAG-NH2 (lactam 16-20) [mt-172] | 9.16 | 0.45 |
| B3 | 47.7 | 0.13 |

molecular target: T2, GIP receptor; experiment: cell-based or functional assay

| Binder | EC50 [nM] | relative activity [%] |
| --- | --- | --- |
| Y[Aib]QGTFISDYSIYLDEQAAKEFVNWLLAGGPSSGAPPPSC(PEG 40 kDa)-NH2 (lactam 16-20) [mt-182] | 0.08 |  |
| Y[Aib]QGTFTSDYSIYLDEQAAKEFVC(PEG 40 kDa)WLLAG-NH2 (lactam 16-20) [mt-172] | 7.54 | 0.25 |

molecular target: GLP-1 receptor (UniProt P43220 24-463, limits assumed); experiment: cell-based or functional assay; remark: another data set of the same source

| Binder | EC50 [nM] | relative activity [%] |
| --- | --- | --- |
| FTSDYSIYLDEQAAKEFVNWLLAGGPSSGAPPPS-NH2 (not fully specified) [mt-192] | 47 | 0.06 |
| Y[Aib]QGTFISDYSIYLDEQAAKEFVNWLLAGGPSSGAPPPSC(PEG 40 kDa)-NH2 (lactam 16-20) [mt-182] | 10 |  |
| Y[Aib]QGTFTSDYSIYLDEQAAKEFVC(PEG 40 kDa)WLLAG-NH2 (lactam 16-20) [mt-172] | 0.859 | 3.43 |
| B3 | 35.3 | 0.07 |
| B4 | 4.16 | 0.63 |

Source: US20110166062A1 (INDIANA UNIVERSITY RESEARCH AND TECHNOLOGY, published 2011)
